# Measurements: patent publication US20200247855A1, “THERAPY AND DIAGNOSTICS” (OXFORD UNIVERSITY INNOVATION LIMITED, priority 2017, published 2020)
# B1: P974_AMBCA, A0A023FDY8 22-118 (protein)
# chain: ENTQQEEQDYDYGTDTCPFPVLANKTNKAKFVGCHQKCNGGDQKLTDGTACYVVERKVWDRMTPMLWYECPLGECKNGVCEDLRKKEDCRKGNGEEK
# Experiments:
# [1] = target: T1, CCL8_HUMAN (human), P80075; experiment: FACS, inhibition of CCL8-647 binding to THP-1 cells; conditions: modification not given
# T1 chain: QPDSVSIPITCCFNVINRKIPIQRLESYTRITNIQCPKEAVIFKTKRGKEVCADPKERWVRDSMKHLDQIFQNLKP
# [2] = target: T2, CCL5_HUMAN (human), P13501; experiment: BLI; conditions: remark: other sources report otherwise
# T2 chain: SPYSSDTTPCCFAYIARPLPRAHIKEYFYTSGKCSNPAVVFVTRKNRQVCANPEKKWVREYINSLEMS
# [3] = target: T1, CCL8_HUMAN (human), P80075; experiment: fluorescence polarisation; Kd1, two-site fit; conditions: modification not given
# [4] = target: T1, CCL8_HUMAN (human), P80075; experiment: fluorescence polarisation; Kd2, two-site fit; conditions: modification not given
binder,measurement,setting,value
EDEDYEDFFKPVTAYF [P672_PEP (peptide BK1.1)],IC50,[1],4900 nM
B1,Kd,[2],160 nM
EDEDYEDFFKPVTAYF [P672_PEP-FITC],Kd,[3],11.9 nM
same,Kd,[4],252 nM
